From IntAct's records for PubMed 15509585

B1: Thioredoxin-like protein slr1139 (Synechocystis sp. (strain PCC 6803 / Kazusa)), P73263 (parent)
chain: MSLLEITDAEFEQETQGQTKPVLVYFWASWCGPCRLMAPAIQAIAKDYGDKLKVLKLEVDPNPAAVAQCKVEGVPALRLFKNNELVMTHEGAIAKPKLLELLKEELDFI
partner: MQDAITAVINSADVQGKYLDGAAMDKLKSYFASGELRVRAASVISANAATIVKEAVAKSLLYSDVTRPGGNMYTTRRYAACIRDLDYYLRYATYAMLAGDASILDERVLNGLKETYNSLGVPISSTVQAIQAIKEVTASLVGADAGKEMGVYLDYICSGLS
B2: Thioredoxin-like protein slr1139 (Synechocystis sp. (strain PCC 6803 / Kazusa)), P73263 (parent)
chain: B1 chain
partner: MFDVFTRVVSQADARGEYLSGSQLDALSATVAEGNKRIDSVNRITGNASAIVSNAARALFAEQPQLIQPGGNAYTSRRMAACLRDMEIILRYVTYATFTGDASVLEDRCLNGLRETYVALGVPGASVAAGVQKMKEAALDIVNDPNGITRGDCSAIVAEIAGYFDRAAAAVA
B3: Thioredoxin-like protein slr1139 (Synechocystis sp. (strain PCC 6803 / Kazusa)), P73263 (parent)
chain: B1 chain
partner: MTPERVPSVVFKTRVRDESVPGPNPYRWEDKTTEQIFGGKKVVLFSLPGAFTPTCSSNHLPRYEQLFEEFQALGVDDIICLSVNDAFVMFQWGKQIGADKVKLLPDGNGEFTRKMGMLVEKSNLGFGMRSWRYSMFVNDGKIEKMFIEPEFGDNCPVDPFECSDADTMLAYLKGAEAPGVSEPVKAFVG

Variants of: B1
Settings: with apcb_syny3 apcB

Variant	effect of a mutation on the interaction
C34S	increasing interaction

Variants of: B2
Settings: with phcb_syny3 cpcB

Variant	effect of a mutation on the interaction
C34S	increasing interaction

Variants of: B3
Settings: with prx5_syny3 prx5, P73728

Variant	effect of a mutation on the interaction
C34S	increasing interaction
